Measurements reported in IntAct's records for PubMed 29892012.

B1: Atos homolog protein B (Homo sapiens), Q7L5A3 (parent)
chain: MRHVQAEPSPSSEPEAGPSQPPVRQGALQGGLLMGYSPAGGATSPGVYQVSIFSPPAGTSEPHRALKRQAPSTEGPRELKRGPGLGAREGLPPEEPSTVGLLGPEGPGLGLGVASQHFSHRGLCVVEQRSSVTSSWTSGAWSPPCPPSNASCNTLHTRDWASPDPGGQGSLGESPGPAPPGQLHTLDTDLHSLAQIGGKSPVAGVGNGGSLWPRESPGTANGHSPEHTPPGPGPPGPCPTKRRLLPAGEAPDVSSEEEGPAPRRRRGSLGHPTAANSSDAKATPFWSHLLPGPKEPVLDPTDCGPMGRRLKGARRLKLSPLRSLRKGPGLLSPPSASPVPTPAVSRTLLGNFEESLLRGRFAPSGHIEGFTAEIGASGSYCPQHVTLPVTVTFFDVSEQNAPAPFLGIVDLNPLGRKGYSVPKVGTVQVTLFNPNQTVVKMFLVTFDFSDMPAAHMTFLRHRLFLVPVGEEGNANPTHRLLCYLLHLRFRSSRSGRLSLHGDIRLLFSRRSLELDTGLPYELQAVTEAPHNPRYSPLP
partner: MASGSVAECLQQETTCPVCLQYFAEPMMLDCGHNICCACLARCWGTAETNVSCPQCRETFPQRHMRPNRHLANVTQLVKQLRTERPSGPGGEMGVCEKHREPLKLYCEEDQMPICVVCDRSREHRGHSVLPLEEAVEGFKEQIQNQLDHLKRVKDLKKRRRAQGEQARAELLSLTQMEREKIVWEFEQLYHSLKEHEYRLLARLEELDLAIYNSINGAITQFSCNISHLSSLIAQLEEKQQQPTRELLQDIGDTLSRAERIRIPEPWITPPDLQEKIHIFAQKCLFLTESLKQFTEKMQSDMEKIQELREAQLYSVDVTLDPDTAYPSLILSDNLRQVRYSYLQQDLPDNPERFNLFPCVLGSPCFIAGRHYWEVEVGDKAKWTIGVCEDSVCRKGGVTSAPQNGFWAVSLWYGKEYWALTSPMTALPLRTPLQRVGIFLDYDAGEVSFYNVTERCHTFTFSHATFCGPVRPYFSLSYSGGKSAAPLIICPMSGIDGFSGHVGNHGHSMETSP
B2: Ras suppressor protein 1 (Homo sapiens), Q15404 (parent)
chain: MSKSLKKLVEESREKNQPEVDMSDRGISNMLDVNGLFTLSHITQLVLSHNKLTMVPPNIAELKNLEVLNFFNNQIEELPTQISSLQKLKHLNLGMNRLNTLPRGFGSLPALEVLDLTYNNLSENSLPGNFFYLTTLRALYLSDNDFEILPPDIGKLTKLQILSLRDNDLISLPKEIGELTQLKELHIQGNRLTVLPPELGNLDLTGQKQVFKAENNPWVTPIADQFQLGVSHVFEYIRSETYKYLYGRHMQANPEPPKKNNDKSKKISRKPLAAKNR
B3: Glutaredoxin-3 (Homo sapiens), O76003 (parent)
chain: MAAGAAEAAVAAVEEVGSAGQFEELLRLKAKSLLVVHFWAPWAPQCAQMNEVMAELAKELPQVSFVKLEAEGVPEVSEKYEISSVPTFLFFKNSQKIDRLDGAHAPELTKKVQRHASSGSFLPSANEHLKEDLNLRLKKLTHAAPCMLFMKGTPQEPRCGFSKQMVEILHKHNIQFSSFDIFSDEEVRQGLKAYSSWPTYPQLYVSGELIGGLDIIKELEASEELDTICPKAPKLEERLKVLTNKASVMLFMKGNKQEAKCGFSKQILEILNSTGVEYETFDILEDEEVRQGLKAYSNWPTYPQLYVKGELVGGLDIVKELKENGELLPILRGEN
partner: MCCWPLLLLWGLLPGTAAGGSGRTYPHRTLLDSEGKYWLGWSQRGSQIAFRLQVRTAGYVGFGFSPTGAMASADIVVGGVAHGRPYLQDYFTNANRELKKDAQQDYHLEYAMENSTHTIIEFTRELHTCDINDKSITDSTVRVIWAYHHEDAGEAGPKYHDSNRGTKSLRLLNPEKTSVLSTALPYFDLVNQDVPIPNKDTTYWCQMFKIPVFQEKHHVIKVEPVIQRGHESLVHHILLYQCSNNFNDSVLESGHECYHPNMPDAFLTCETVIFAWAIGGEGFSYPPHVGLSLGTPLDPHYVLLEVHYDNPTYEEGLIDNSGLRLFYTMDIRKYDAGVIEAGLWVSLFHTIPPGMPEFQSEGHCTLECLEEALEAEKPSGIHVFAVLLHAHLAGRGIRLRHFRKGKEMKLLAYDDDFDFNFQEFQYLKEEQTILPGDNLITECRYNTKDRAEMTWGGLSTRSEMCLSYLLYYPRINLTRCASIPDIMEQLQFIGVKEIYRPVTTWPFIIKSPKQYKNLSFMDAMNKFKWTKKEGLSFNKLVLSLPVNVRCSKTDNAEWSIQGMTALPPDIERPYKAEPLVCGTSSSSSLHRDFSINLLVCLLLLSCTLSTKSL
B4: Glutaredoxin-3 (Homo sapiens), O76003 (parent)
chain: B3 chain
partner: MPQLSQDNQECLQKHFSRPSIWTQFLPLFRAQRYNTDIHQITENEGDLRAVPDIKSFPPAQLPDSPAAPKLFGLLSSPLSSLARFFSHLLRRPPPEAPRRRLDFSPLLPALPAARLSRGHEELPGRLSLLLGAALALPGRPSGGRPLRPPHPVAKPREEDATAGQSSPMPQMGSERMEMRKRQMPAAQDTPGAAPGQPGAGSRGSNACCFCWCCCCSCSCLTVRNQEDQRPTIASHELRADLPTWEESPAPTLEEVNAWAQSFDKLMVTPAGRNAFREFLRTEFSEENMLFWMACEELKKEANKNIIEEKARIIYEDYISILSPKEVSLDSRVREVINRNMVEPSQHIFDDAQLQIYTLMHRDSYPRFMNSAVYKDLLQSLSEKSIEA
B5: Coiled-coil alpha-helical rod protein 1 (Homo sapiens), Q8TD31 (parent)
chain: MFPPSGSTGLIPPSHFQARPLSTLPRMAPTWLSDIPLVQPPGHQDVSERRLDTQRPQVTMWERDVSSDRQEPGRRGRSWGLEGSQALSQQAEVIVRQLQELRRLEEEVRLLRETSLQQKMRLEAQAMELEALARAEKAGRAEAEGLRAALAGAEVVRKNLEEGSQRELEEVQRLHQEQLSSLTQAHEEALSSLTSKAEGLEKSLSSLETRRAGEAKELAEAQREAELLRKQLSKTQEDLEAQVTLVENLRKYVGEQVPSEVHSQTWELERQKLLETMQHLQEDRDSLHATAELLQVRVQSLTHILALQEEELTRKVQPSDSLEPEFTRKCQSLLNRWREKVFALMVQLKAQELEHSDSVKQLKGQVASLQEKVTSQSQEQAILQRSLQDKAAEVEVERMGAKGLQLELSRAQEARRRWQQQTASAEEQLRLVVNAVSSSQIWLETTMAKVEGAAAQLPSLNNRLSYAVRKVHTIRGLIARKLALAQLRQESCPLPPPVTDVSLELQQLREERNRLDAELQLSARLIQQEVGRAREQGEAERQQLSKVAQQLEQELQQTQESLASLGLQLEVARQGQQESTEEAASLRQELTQQQELYGQALQEKVAEVETRLREQLSDTERRLNEARREHAKAVVSLRQIQRRAAQEKERSQELRRLQEEARKEEGQRLARRLQELERDKNLMLATLQQEGLLSRYKQQRLLTVLPSLLDKKKSVVSSPRPPECSASAPVAAAVPTRESIKGSLSVLLDDLQDLSEAISKEEAVCQGDNLDRCSSSNPQMSS
partner: B1 partner

Variants of: B1
Settings: with tri27_human TRIM27, P14373

Variant	effect of a mutation on the interaction
C381Y	disrupting interaction strength

Variants of: B2
Settings: with lims1_human LIMS1, P48059
Sequence of lims1_human LIMS1, P48059 (P48059 whole entry): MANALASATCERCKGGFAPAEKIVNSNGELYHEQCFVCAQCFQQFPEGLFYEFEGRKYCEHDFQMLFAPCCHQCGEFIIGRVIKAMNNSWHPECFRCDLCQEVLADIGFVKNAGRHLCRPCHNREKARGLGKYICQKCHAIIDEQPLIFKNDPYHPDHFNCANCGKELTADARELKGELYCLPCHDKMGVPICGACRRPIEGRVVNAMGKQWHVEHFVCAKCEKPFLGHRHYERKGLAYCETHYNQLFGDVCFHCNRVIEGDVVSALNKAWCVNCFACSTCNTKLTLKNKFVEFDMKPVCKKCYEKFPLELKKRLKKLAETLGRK

Variant	effect of a mutation on the interaction
P57L	disrupting interaction strength

Variants of: B3
Settings: with moxd1_human MOXD1, Q6UVY6

Variant	effect of a mutation on the interaction
P145A	with no effect

Variants of: B4
Settings: with rgs20_human RGS20, O76081

Variant	effect of a mutation on the interaction
P145A	with no effect

Variants of: B5
Settings: with tri27_human TRIM27, P14373

Variant	effect of a mutation on the interaction
W337R	disrupting interaction strength
